Data published in US20240035010, “COMPOSITIONS COMPRISING A VARIANT POLYPEPTIDE AND USES THEREOF” (Arbor Biotechnologies, Inc., published 2024).
Positions count from the first letter of the chain named.

Tests used:
[1] = target: T1, variant nuclease E736G combination (P14R, D32R, I61R, E311R, E736G); experiment: cell_activity; PAM 5'-TTTA-3'; conditions: tags: pcDNA3.1 expression
T1 chain: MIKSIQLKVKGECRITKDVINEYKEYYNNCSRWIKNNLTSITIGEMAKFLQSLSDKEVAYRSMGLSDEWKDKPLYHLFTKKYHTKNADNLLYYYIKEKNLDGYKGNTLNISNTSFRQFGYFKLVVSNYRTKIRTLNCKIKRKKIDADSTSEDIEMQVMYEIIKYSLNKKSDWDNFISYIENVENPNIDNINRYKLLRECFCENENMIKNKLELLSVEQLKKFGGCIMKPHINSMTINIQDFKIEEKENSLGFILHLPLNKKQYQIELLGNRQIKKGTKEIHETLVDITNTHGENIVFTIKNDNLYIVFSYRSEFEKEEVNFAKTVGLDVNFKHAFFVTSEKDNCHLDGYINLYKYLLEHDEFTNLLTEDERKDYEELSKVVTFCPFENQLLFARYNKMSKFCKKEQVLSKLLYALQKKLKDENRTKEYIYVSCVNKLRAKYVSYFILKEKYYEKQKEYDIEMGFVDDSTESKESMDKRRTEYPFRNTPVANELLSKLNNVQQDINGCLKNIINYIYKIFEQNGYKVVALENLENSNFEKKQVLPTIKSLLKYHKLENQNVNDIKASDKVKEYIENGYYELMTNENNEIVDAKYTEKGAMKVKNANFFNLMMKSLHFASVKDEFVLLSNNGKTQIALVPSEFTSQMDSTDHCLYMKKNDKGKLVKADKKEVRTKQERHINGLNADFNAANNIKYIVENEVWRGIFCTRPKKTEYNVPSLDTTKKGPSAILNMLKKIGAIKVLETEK
How it was run: (§1)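 HEK293T cells were lipofected with nuclease plasmid (pcDNA3.1 backbone) plus RNA guide plasmid, with guide omitted in negative controls. After ~72 h cells were lysed in QuickExtract and % indels were derived from NGS reads, averaged over two bioreplicates and two technical replicates.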

[2] = target: T2, variant nuclease E154G combination (P14R, D32R, I61R, E311R, E154G); experiment: cell_activity; PAM 5'-TTTA-3'; conditions: tags: pcDNA3.1 expression
T2 chain: T1 chain with E154G, G736E
How it was run: as §1

B1: VEGFA crRNA ; VEGFA target (ssRNA ; dsDNA)
RNA: CUUGUUGUAUAUGUCCUUUUAUAGGUAUUAAACAACUCCAGACCACCAAUGGGCAC
DNA 1: TCCAGACCACCAATGGGCAC
DNA 2: GTGCCCATTGGTGGTCTGGA
How did the indel activity [1] turn out when B1 was run?
Its indel activity is 2.65 fold of WT.

What about the indel activity [2] of the same binder?
The indel activity was 2.65 fold of WT.
